Results taken from patent publication US8530235B2, “Medium that supports culture of an oocyte and modulation of granulosa cell apoptosis” (Adelaide Research & Innovation Pty Ltd., priority 2005, dated 2013).

Key:
cumulus cells = assay: Staurosporine-induced cumulus cell apoptosis in OOX (TUNEL); format: cell-based, Bovine; conditions: 10% BMP-15 or 10 ng/ml BMP-6
Procedure: CC apoptoic DNA was detected using TUNEl (Roche Diagnostic, Penzberg, Germany) according to the manufacturer's instructions. […] Complexes were then permeabilized in 0.11/u Triton X-100 in 0.1% sodium citrate for 1 hour at room temperature and washed 3 times in PBS/BSA. The complexes were then incubated in fluorescein-conjugated dUTP and terminal deoxynucleotide transferase (TUNEl reagents, Roche) for 1 hour at 37° C. in the dark. Positive controls were incubated in DNAse 1 (0.005 U/µl), which cleaves all DNA, for 20 minutes at room temperature and washed twice in PBS/BSA before TUNEl. Negative controls were incubated in fluorescein-dUTP in the absence of TdT. After TUNEl, complexes were washed twice in PBS/BSA and counterstained with propidium iodide 0.5 μg/ml (PI) plus RNase A (0.1 mg/ml) for 1 hour at room temperature in the dark to label all nuclei. Complexes were then washed twice in PBS/BSA and mounted with slight coverslip compression in VectaShield anti-bleaching solution (Vector labs, Burlingame, Calif.), and stored in the dark at 4° C. for confocal analysis. […] These optical section images were acquired and saved as independent colour channels (green, apoptotic cumulus fluorescence and red, nuclear cumulus fluorescence). The captured images were then processed in Scanalytics IPlab software Version 3.6. (Scanalytics, Fairfax, Va.). Quantification of CC number (for each colour channel) was independently measured using a macro script utilizing an auto segmentation filter for each optical section percentile (3 optical “z”-plane sections for each complex). A percentage of apoptotic nuclei were generated for each slice and the three percentile values were then averaged to achieve a representation of the total apoptotic nuclei percentage for the whole complex. These processes were repeated separately on each individual complex. A preliminary experiment was conducted to determine the apoptotic effect of staurosporine on bovine CC, which induced apoptosis in a dose-dependent manner (range; 0.1-100 μM, data not shown). The aim of this experiment was to determine whether OSF could prevent CC from undergoing apoptosis induced by staurosporine. OOX alone or co-cultured with 35 DO, 10 ng/ml BMP-6 or 10% (v/v) BMP-15, and were then exposed to either 0.1 μM or 1.0 μM staurospourine for the last 6 hours of the 24 hour incubation period. Three replicates of this experiment were carried out using 10 OOX per treatment group per replicate experiment.

[1] = Study V: pregnancy outcome after transfer of blastocysts to pseudo-pregnant females; format: in vivo, mice; conditions: oocytes matured with 200 ng/ml GDF9, Day 15 of pregnancy
Procedure: (§1) Oocytes (n=1106) were then fertilised and cultured to the blastocyst stage in G1.2/G2.2 medium at 37° C. in 6% CO2 5% O2. Blastocysts were pooled and either transferred to pseudo-pregnant Swiss females or differentially stained. Pregnancy outcome was assessed on Day 15 of pregnancy.

[2] = test system: cumulus expansion of oocytectomised (OOX) complexes; assay: FSH-induced cumulus expansion score of OOX complexes; format: cell-based, mice; conditions: score 0 (no expansion) to +4 (maximum expansion); mean ±SEM; OOX complexes with FSH
Procedure: Members of the TGF-β superfamily are prime candidates for the mouse cumulus expansion-enabling factor (CEEF). This study was conducted to examine TGF-β superfamily processes regulating cumulus expansion. COCs were collected from eGG-primed mice and the oocyte microsurgically removed to generate oocytectomised (OOX) complexes. […] The type-I receptors for GDF9 and […] are ALK5 and ALK4, respectively. We tested the ability of an ALK4/5/7 kinase inhibitor to neutralize cumulus expansion.

cumulus-oocyte complexes = assay: Study V: oocyte IVM with GDF9, cumulus expansion and embryo development; format: cell-based, mice; conditions: 200 ng/ml GDF9 with FSH/EGF
Procedure: as §1

[3] = test system: Smad 3-responsive CAGA-luciferase reporter; assay: Smad 3-responsive CAGA-luciferase reporter in mural granulosa cells from large antral follicles; format: cell-based, marmoset monkey, Callithrix jacchus; conditions: 48 h; 0.5 ng/ml TGFβ1, 88-265 ng/ml GDF9, 50 ng/ml BMP7 or 60 mouse oocytes
Procedure: FIGS. 18A and 18B show the activation of the TGF-β signalling pathway by GDF9 and oocytes. MGC from large follicles were transiently transfected with either a Smad 3-responsive CAGA-luciferase reporter construct (A) or a Smad 1-responsive BRE-luciferase reporter construct (B). Cells were subsequently left untreated, treated with 0.5 ng/ml TGFβ1, 88-265 ng/ml GDF9, 50 ng/ml BMP7 or co-cultured with 60 mouse oocytes. Cells were cultured for 48 h after which time luciferase activity was measured from cell extracts. Bars represent means+/− SEM from 3 replicate experiments expressed as a fold change relative to control.
Luciferase reporter constructs responsive to specific phosphorylated Smads were used to detect the activation of mural GC Smad proteins by recombinant GDF9 Mural GCs were collected and processed as described above, except cells were given a final wash in DMEM(MP Biomedicals, Seven Hills, Australia)+2% FCS (Trace Biosciences, Castle Hill, Australia). Following the final wash, cells were transferred to individual wells of a 96-well plate (Falcon) and cultured at 1.6×10^5 cells/ml. After 4 hours of culture, cells were transiently transfected with 50 ng of luciferase reporter construct DNA using Fugene 6 (Roche Diagnostics, Castle Hill, Australia). 18 hours after transfection, medium was aspirated from cells and replaced with DMEM supplemented with 0.1% FCS. Various ligands were added to cells at this point (see below) and the culture period extended for a further 48 hours. Experiments were terminated by removing media from wells and freezing plates at −20° C. […]
Seven adult female marmosets were primed with […] for 6 days, whole ovaries were removed on day 7, follicles manually excised, and GC were then collected from 3 size classes: periantral (PA; 0.42-0.66 mm), small antral (SA; 0.66-1.5 mm) and large antral (LA; >1.5 mm). […] In order to determine the effects of GDF9 on marmoset GC proliferation, we employed a GC bioassay whereby after 24 h ^3H-thymidine incorporation is assessed as an indicator of DNA synthesis and cellular proliferation. […]

Row | Molecule | CC apoptosis of treated OOX exposed to staurosporine (cumulus cells; 0.1 μM staurosporine) [%] | CC apoptosis of treated OOX exposed to staurosporine (cumulus cells; 1 μM staurosporine) [%] | fetal development ([1]; vs 21%, P=0.04) [%] | implantation ([1]; vs 77%, not affected) [%] | cumulus expansion score [2] | fertilisation, rate of development or blastocyst percentages (cumulus-oocyte complexes) | blastocyst total cell number (cumulus-oocyte complexes; P=0.05) | cumulus expansion index (cumulus-oocyte complexes; vs 2.4±0.1) | blastocyst percentages (cumulus-oocyte complexes; vs 75%, no significant effect) [%] | CAGA-luciferase activity above control levels [3] [fold]
1 | BMP-15: Recombinant ovine BMP-15 produced in-house in transfected 293H cells, partially purified by hydrophobic interaction chromatography; dosed as % v/v (protein, UniProt Q9MZE2 269-393, looked up) Bone morphogenetic protein 15: QAGSIASEVPGPSREHDGPESNQCSLHPFQVSFQQLGWDHWIIAPHLYTPNYCKGVCPRVLHYGLNSPNHAIIQNLVSELVDQNVPQPSCVPYKYVPISILLIEANGSILYKEYEGMIAQSCTCR | 17 | 25 |  |  |  |  |  |  |  | 
2 | GDF-9: Recombinant mouse GDF-9 produced in-house in transfected 293H cells, partially purified by HIC (protein, UniProt Q07105 307-441, looked up) Growth/differentiation factor …: GQKAIRSEAKGPLLTASFNLSEYFKQFLFPQNECELHDFRLSFSQLKWDNWIVAPHRYNPRYCKGDCPRAVRHRYGSPVHTMVQNIIYEKLDPSVPRPSCVPGKYSPLSVLTIEPDGSIAYKEYEDMIATRCTCR |  |  | 39 | 83 | 3.7±0.1 | no significant effect | significantly increased | 3.1±0.1 | 83 | 5
